The supplement of paper PMC11908140

B1: library; numbered along this chain (parent)
chain: MRKPRAAVGSGHRKQAASQEGRQKHAKNNSQAKPSACDGLARQPEEVVLQASVSSYHLFRDVAEVTAFRGSLLSWYDQEKRDLPWRRRAEDEMDLDRRAYAVWVSEVMLQQTQVATVINYYTGWMQKWPTLQDLASASLEEVNQLWAGLGYYSRGRRLQEGARKVVEELGGHMPRTAETLQQLLPGVGRYTAGAIASIAFGQATGVVDGNVARVLCRVRAIGADPSSTLVSQQLWGLAQQLVDPARPGDFNQAAMELGATVCTPQRPLCSQCPVESLCRARQRVEQEQLLASGSLSGSPDVEECAPNTGQCHLCLPPSEPWDQTLGVVNFPRKASRKPPREESSATCVLEQPGALGAQILLVQRPNSGLLAGLWEFPSVTWEPSEQLQRKALLQELQRWAGPLPATHLRHLGEVVHTFSHIKLTYQVYGLALEGQTPVTTVPPGARWLTQEEFHTAAVSTAMKKVFRVYQGQQPGTCMGSKRSQVSSPCSRKKPRMGQQVLDNFFRSHISTDAHSLNSAAQ

Variants of: B1
Test: 8OG:A repair function score (normalized; synonymous = 0, nonsense = -1) (normalized log-likelihood score); higher = more repair activity (WT-like)
Conditions: with 8OG:A DNA repair reporter (GFP) in HEK-293 MUTYH KO cells
Method: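 Saturation mutagenesis (NNN codon scan) of the MUTYH cDNA (521-aa nuclear isoform NM_001048174.1 / NP_001041639), stably expressed under doxycycline induction in HEK-293 MUTYH knockout cells. Cells were co-transfected with an 8OG:A-bearing GFP repair reporter plus mCherry and sorted 72 h later into GFP+ and GFP− bins, three replicates per tile. The Rosace log2 enrichment (GFP+ vs GFP−) was converted per tile to a normalized function score with synonymous variants centered at 0 and nonsense variants (codons 1-471) at -1; low-abundance variants were removed.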

8OG:A repair function score of substitutions, site by site:
V187: L -0.609
T176: E -0.128, V -0.285, C -0.0512, W -0.419, A -0.251, H -0.0301, I -0.31, M -0.28, L -0.174, Y -0.16, D 0.00933, S -0.0317, R -0.102, K -0.0846, P -0.429, G -0.216, Q -0.0945, F -0.157, N 0.0341
G171: H -0.42, A -0.18, P -1.16, C -0.239, I -0.703, M -0.536, T -0.321, K -0.84, E -0.526, Y -0.628, F -0.571, R -0.577, S -0.267, V -0.443, L -0.605, Q -0.338, N -0.204, W -0.633, D -0.296
E178: I -0.0162, Q -0.0318, C -0.0388, H -0.0501, G -0.126, N 0.0803, V -0.12, R 0.0879, W -0.0455, P -0.125, Y 0.00398, D -0.000297, K 0.0383, L -0.106, T 0.0829, M 0.0407, A 0.0541, F -0.0911, S -0.037
L184: D -1.16, K -0.925, F -0.304, Q -0.899, S -0.911, Y -0.855, V -0.238, H -1.05, E -1.09, T -0.62, P -1.21, I -0.0822, C -0.317, M -0.281, R -1.2, G -0.899, W -1.13, A -0.718, N -0.987
G188: F -1.06, C -0.839, E -0.866, Y -0.89, K -1.11, A -0.365, P -0.845, M -0.929, D -1.09, W -1.02, Q -0.909, V -1.04, R -0.844, T -1.03, L -0.95, H -0.662, I -1.11, N -0.923, S -0.643
R175: G -0.166, A -0.0909, D -0.192, E 0.0279, N -0.0345, M -0.155, F -0.197, P -0.229, I -0.189, S -0.0258, Q 0.0309, H -0.116, L -0.252, K -0.133, W -0.356, T -0.00924, Y -0.175, V -0.148, C -0.0695
G170: V -0.31, W -0.239, Y -0.062
A177: N -0.0568, C -0.0436, Q -0.125, L -0.213, G -0.166, R -0.127, Y -0.194, P -0.0959, D -0.363, F -0.273, H -0.14, T -0.226, E -0.368, K -0.0185, S -0.1, M -0.0819, V -0.207, W -0.324, I -0.142
P185: W -0.553, K -0.102, H -0.43, R -0.264, L -0.344, N -0.12, M -0.282, T -0.242, A -0.225, G -0.141, E -0.168, D -0.333, Q -0.197, Y -0.363, S -0.221, C -0.242, F -0.285, I -0.275, V -0.299
Q181: L -0.0425, H -0.175, G -0.165, P -0.726, T -0.0945, Y 0.00604, V -0.114, K -0.0739, I -0.0381, E 0.0231, N -0.118, C -0.121, W -0.337, R -0.0552, D -0.331, F -0.0623, S -0.0472, M -0.0648, A -0.034
H172: P -0.512, D -0.0948, G -0.216, C -0.0393, I -0.0329, V 0.0577, Y -0.0294, K 0.118, M 0.0264, Q 0.0285, N -0.0786, S 0.0204, E 0.017, L -0.0966, A -0.0729, F -0.0443, R -0.0155, W -0.21, T 0.0683
G186: Q -0.401, L -1.02, P -0.924, D -0.855, E -0.989, T -0.373, W -1.08, K -0.9, I -1.23, V -0.852, F -1.04, A -0.672, N -0.814, M -0.885, C -0.439, S -0.34, Y -0.992, R -1.16, H -0.754
L183: V 0.0213, T -0.0372, Q 0.0196, F -0.0771, R -0.105, S 0.0487, D -0.21, M -0.13, K -0.0447, E -0.0475, W -0.0703, I -0.112, N -0.102, H 0.0988, C -0.208, A -0.0103, G -0.0301, Y 0.0742, P -0.826
Q182: L -0.0117, K 0.129, E -0.0278, T -0.0374, F -0.161, P -0.18, H 0.0507, S 0.0262, G -0.00226, A 0.0281, V -0.022, D -0.0172, W -0.114, I -0.0148, C -0.0792, M -0.0488, N -0.133, R -0.0127, Y 0.00409
M173: Q -0.93, H -0.672, G -0.965, Y -0.366, K -0.971, T -0.402, I 0.0625, R -1.15, W -0.276, S -0.859, V -0.0935, E -1.13, C -0.257, A -0.537, P -0.654, N -0.945, F -0.014, L -0.00175, D -0.926
T179: N -0.0369, I -0.04, K 0.0976, Y -0.146, V -0.0453, A -0.088, D 0.248, P -0.236, W -0.0647, C -0.0042, R 0.0462, Q -0.0228, S 0.00681, M 0.0538, E -0.0168, H 0.0778, F -0.0885, G 0.108, L 0.0629
L180: W -0.713, E -0.764, R -1.18, V -0.497, D -1.1, C -0.258, Q -0.655, T -0.439, F -0.576, N -1.02, H -1.24, I -0.119, Y -0.571, K -0.838, A -0.223, S -0.679, P -1.03, G -0.785
R189: H -0.228, D -0.22, A -0.136, C -0.258, I -0.335, E -0.385, F -0.222, G -0.299
P174: E -0.932, A -0.706, F -0.961, L -0.947, T -0.922, C -0.583, H -0.972, N -0.958, K -0.797, R -0.877, V -0.797, S -0.753, W -1.14, M -0.732, I -0.9, D -0.922, G -0.814, Q -0.827, Y -0.958
